The target in assay [1] is His-tagged IgD (SpyTagged HAPPID1: human anti-Phl p 7 IgD 102.1F10 with SpyTag003 and His6-tag on the heavy chain) (human) (UniProt P01880). In words: SPR; His-tagged IgD (100 nM) captured on an anti-His chip (CM5); two-fold dilution series of TEV-cleaved Nbs, 200 nM to 1.6 nM, flowed over; Biacore T200, 25 °C, 10 mM HEPES pH 7.4, 150 mM NaCl, 0.05% P20; koff from mono- or biphasic decay, kon from kobs against concentration, KD = koff/kon.

Assay [2] has as its target IgD on Namalwa B cells (membrane-bound IgD) (human (endogenous in Namalwa)) (UniProt P01880). In words: flow cytometry on cells; Namalwa cells incubated with 1 µM AF488-labeled Nb:Catcher fusion in PBS pH 7.3, 1% BSA, 0.1% NaN3, 1 h at 4 °C (1 µM, 500 nM and 250 nM for titration); median fluorescence intensity. A general note: Flow cytometry measures light scatter and fluorescence of single cells or particles in a stream.

Assay [3] deals with IgD-Fc (Fc region of human IgD, SpyTagged) (human). In words: SEC; complexes of Nb and IgD-Fc with IgD-Fc at 2 µM, incubated overnight at 4 °C; Superdex 200 Increase 10/300 GL in HBS-az at 10 °C. For orientation: Size exclusion chromatography separates by hydrodynamic size, large species first.
Assay [4] has as its target T1, Phl p 7 (antigen of HAPPID1) on an SA chip (Phleum pratense (common timothy), UniProt O82040).
T1 construct: Held on a streptavidin chip; also called SA-Phl p 7 chip
As to the kind of experiment: SPR; IgD (HAPPID1) captured by its antigen Phl p 7 on an SA chip; 25 nM aδNb408 or aδNb408-Nb pairs flowed over; 25 °C, running buffer with 5 mM CaCl2. As to conditions: both partners purified.

IgD on Namalwa B cells (membrane-bound IgD) (human (endogenous in Namalwa)), sequence (P01880 whole entry, looked up, the tested form may be a part): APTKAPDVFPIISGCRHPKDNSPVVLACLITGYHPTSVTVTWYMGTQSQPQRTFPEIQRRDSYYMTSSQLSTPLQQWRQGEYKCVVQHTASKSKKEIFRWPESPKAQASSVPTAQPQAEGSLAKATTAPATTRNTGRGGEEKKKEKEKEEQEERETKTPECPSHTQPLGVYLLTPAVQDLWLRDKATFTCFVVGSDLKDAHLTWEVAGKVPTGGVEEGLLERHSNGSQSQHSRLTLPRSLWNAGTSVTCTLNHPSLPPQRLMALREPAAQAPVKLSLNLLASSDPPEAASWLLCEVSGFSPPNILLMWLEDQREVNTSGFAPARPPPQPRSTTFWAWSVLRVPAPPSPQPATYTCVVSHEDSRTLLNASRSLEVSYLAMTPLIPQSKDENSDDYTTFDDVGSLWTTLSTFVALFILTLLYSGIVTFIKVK
T1 sequence (O82040 whole entry): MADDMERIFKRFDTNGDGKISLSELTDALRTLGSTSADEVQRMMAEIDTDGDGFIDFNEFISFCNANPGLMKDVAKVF

B1: anti-IgD Nb 571 (aδNb571), TEV-cleaved (VHH)
VHH: QVQLQESGGGLVQPGGSLRLSCAASGTPFSASVMAWYRQAPGKERVWVATITSDSMTYYADSVNGRFTISRDNAKSTVYLQMNSLKPEDTAAYICRHAASASWGQGTQVTVSS
Broadly, the Kd is the free concentration of one partner at which half of the binding sites on the other are occupied at equilibrium, for simple one-to-one binding. The koff is a measure of how fast the partners let go of each other. Usually kon stands for the second-order rate constant of association. High values mean fast association, low ones slow association. Regarding B1, in assay [1], the Kd was 0.66 nM, the koff amounted to 0.0012 s⁻¹ and the kon was found to be 1.8e+06 M⁻¹ s⁻¹.

B2: AF488-labeled monovalent aδNb571 (SpyTagged aδNb571 reacted with AF488-labeled SpyCatcher003) (VHH)
VHH: QVQLQESGGGLVQPGGSLRLSCAASGTPFSASVMAWYRQAPGKERVWVATITSDSMTYYADSVNGRFTISRDNAKSTVYLQMNSLKPEDTAAYICRHAASASWGQGTQVTVSS
With B2, the MFI in assay [2] came to 921.

B3: His-tagged anti-IgD Nb 571 (aδNb571) (VHH)
VHH: QVQLQESGGGLVQPGGSLRLSCAASGTPFSASVMAWYRQAPGKERVWVATITSDSMTYYADSVNGRFTISRDNAKSTVYLQMNSLKPEDTAAYICRHAASASWGQGTQVTVSS
By stoichiometry N is commonly meant a count of units in the complex or per binding partner. On to B3, for which, in assay [3], the stoichiometry N is 1 Nb:IgD.

B4: human anti-Phl p 7 IgD 102.1F10 (HAPPID1) (antibody, V domains shown)
VH: QVQLVQSGAEVRNPGASVKVSCKASGYTFTSYAIHWVRQAPGHRLEWVGRINTDNGNTKYSQKFHGRVALSRDTSASTTYMDLSSLNSEDTAVYYCARAFYYSSGVMFDSWGQGALVTVSS
VL: QSALTQPPSVSGAPGQRVSISCTGGSSNFGAGYDVHWYQQLPATAPKLLIYGNNNRPSGVPDRFSGSKSGTSASLAITGLQAEDEGDYFCQSFDTSLSGWIFGGGTKLTVL
notes: heavy-chain variable domain of the human anti-Phl p 7 antibody 102.1F10; pVITRO1-HAPPID1 at Addgene; human immunoglobulin heavy constant delta, secreted form; UniProt P01880-1 is printed for the IgD-Fc used in this study; light chain of 102.1F10; also called full-length IgD; source: stably transfected FreeStyle 293-F cells; copies: 2 + 2
With B4, in assay [4], the binding result is listed as “binds”.

B5: anti-IgD Nb 408 (aδNb408), TEV-cleaved (VHH)
VHH: QVQLQESGGGLVQAGDSLRLSCVASGRSISNDAMAWFRQAPGKEREFVAAITWRYSNTHYSDSVKDRFTISRDNAKNTVYLQMNSLKPEDTADYYCAADRRGTGASSYSRDYDYWGQGTQVTVSS
Regarding B5, in assay [1], the KD1 was 0.89 nM, the KD2 turned out to be 5.2 nM, the koff1 was 0.00074 s⁻¹ and the koff2 was determined as 0.0043 s⁻¹. Moreover, in assay [1], the kon is 820000 M⁻¹ s⁻¹.

B6: His-tagged anti-IgD Nb 408 (aδNb408) (VHH)
VHH: QVQLQESGGGLVQAGDSLRLSCVASGRSISNDAMAWFRQAPGKEREFVAAITWRYSNTHYSDSVKDRFTISRDNAKNTVYLQMNSLKPEDTADYYCAADRRGTGASSYSRDYDYWGQGTQVTVSS
B6: the stoichiometry N in assay [3] was 2 Nb:IgD.

B7: AF488-labeled monovalent aδNb408 (SpyTagged aδNb408 reacted with AF488-labeled SpyCatcher003) (VHH)
VHH: QVQLQESGGGLVQAGDSLRLSCVASGRSISNDAMAWFRQAPGKEREFVAAITWRYSNTHYSDSVKDRFTISRDNAKNTVYLQMNSLKPEDTADYYCAADRRGTGASSYSRDYDYWGQGTQVTVSS
In the case of B7, the MFI in assay [2] was 1340.

B8: His-tagged anti-IgD Nb 367 (aδNb367) (VHH)
VHH: QVQLQESGGGLVQPGGSLRLACAASGFSLSTYTMSWVRQSPGKGLEWVSTITSDGGWTSYRDSVKGRFTISRDNAKNTLYLQMNSLNPEDTAVYYCRRGVGVVRGERPGGQGTQVTVSS
Take B8: the stoichiometry N in assay [3] is 2 Nb:IgD.

B9: AF488-labeled monovalent aδNb367 (SpyTagged aδNb367 reacted with AF488-labeled SpyCatcher003) (VHH)
VHH: QVQLQESGGGLVQPGGSLRLACAASGFSLSTYTMSWVRQSPGKGLEWVSTITSDGGWTSYRDSVKGRFTISRDNAKNTLYLQMNSLNPEDTAVYYCRRGVGVVRGERPGGQGTQVTVSS
B9 came in with an MFI in assay [2] of 1450.

B10: anti-IgD Nb 367 (aδNb367), TEV-cleaved (VHH)
VHH: QVQLQESGGGLVQPGGSLRLACAASGFSLSTYTMSWVRQSPGKGLEWVSTITSDGGWTSYRDSVKGRFTISRDNAKNTLYLQMNSLNPEDTAVYYCRRGVGVVRGERPGGQGTQVTVSS
In assay [1], B10 gave a Kd of 2.4 nM, a koff of 0.00047 s⁻¹ and an association rate constant (kon) of 200000 M⁻¹ s⁻¹.

B11: anti-IgD Nb 107 (aδNb107), TEV-cleaved (VHH)
VHH: QVQLQESGGGLVQAGASLRLSCTASERTFSPYAMGWFRQAPGREREVIASIFWTGGNTGYADSVKGRFTISRDTAKNTVYLQMSNLKPEDTAVYYCGARTSASAPIYGLWGQGTQVTVSS
For B11, in assay [1], the KD1 amounted to 3.2 nM, the KD2 is 22 nM, the koff1 is 0.00066 s⁻¹ and the koff2 worked out at 0.0046 s⁻¹. The same molecule yielded a kon in assay [1] of 210000 M⁻¹ s⁻¹.

B12: AF488-labeled monovalent aδNb107 (SpyTagged aδNb107 reacted with AF488-labeled SpyCatcher003) (VHH)
VHH: QVQLQESGGGLVQAGASLRLSCTASERTFSPYAMGWFRQAPGREREVIASIFWTGGNTGYADSVKGRFTISRDTAKNTVYLQMSNLKPEDTAVYYCGARTSASAPIYGLWGQGTQVTVSS
Regarding B12, in assay [2], the MFI is 662.

B13: His-tagged anti-IgD Nb 107 (aδNb107) (VHH)
VHH: QVQLQESGGGLVQAGASLRLSCTASERTFSPYAMGWFRQAPGREREVIASIFWTGGNTGYADSVKGRFTISRDTAKNTVYLQMSNLKPEDTAVYYCGARTSASAPIYGLWGQGTQVTVSS
On to B13, for which the stoichiometry N in assay [3] is 2 Nb:IgD.
